Earlier results as cited in paper PMC5663392.

Target: FANCL RING (Homo sapiens) (UniProt Q9NW38)
Chain of UniProt Q9NW38 (Q9NW38 304-366): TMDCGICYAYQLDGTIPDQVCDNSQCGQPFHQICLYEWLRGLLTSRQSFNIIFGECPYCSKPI

Ube2T (from UniProt Q9NPD8)
Kd: 500 nM
